{"source": "patent US8754033B2", "about": "“Peptides for inhibiting transglutaminase” (National Cancer Center, priority 2005, dated 2014)"}
{"target": "T1, TGase (UniProt P08587)", "T1 sequence (P08587 1-690)": "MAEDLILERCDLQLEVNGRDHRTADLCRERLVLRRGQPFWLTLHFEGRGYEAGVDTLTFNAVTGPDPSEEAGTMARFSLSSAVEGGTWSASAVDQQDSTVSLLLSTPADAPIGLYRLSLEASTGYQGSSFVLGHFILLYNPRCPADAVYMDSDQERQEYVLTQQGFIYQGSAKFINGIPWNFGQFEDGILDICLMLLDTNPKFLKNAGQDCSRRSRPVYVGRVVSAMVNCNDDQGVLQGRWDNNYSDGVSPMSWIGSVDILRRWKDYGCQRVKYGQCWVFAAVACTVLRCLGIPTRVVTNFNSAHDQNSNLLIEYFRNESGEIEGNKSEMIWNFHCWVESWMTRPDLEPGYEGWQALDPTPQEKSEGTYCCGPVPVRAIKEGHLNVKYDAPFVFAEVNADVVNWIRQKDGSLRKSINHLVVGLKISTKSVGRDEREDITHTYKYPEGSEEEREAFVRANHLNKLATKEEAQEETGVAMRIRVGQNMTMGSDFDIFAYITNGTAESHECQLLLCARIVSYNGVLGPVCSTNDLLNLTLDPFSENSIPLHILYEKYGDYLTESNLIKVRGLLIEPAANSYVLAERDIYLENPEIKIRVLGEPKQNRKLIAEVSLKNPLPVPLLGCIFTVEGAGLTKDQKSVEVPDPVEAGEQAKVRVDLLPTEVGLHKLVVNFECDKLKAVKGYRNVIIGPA", "experiment": "Competition assay: transglutaminase-mediated I-κBα cross-linking with or without synthetic peptides", "assay_type": "biochemical, guinea pig", "conditions": "peptide 2 nmol, I-κBα 2 μg, 0.5 mU TGase, 10 mM CaCl2, 10 min at 37° C., SDS-PAGE, Coomassie band intensity", "experimental": "I-κBα (2 μg) was incubated with 0.5 mU TGase in a reaction buffer containing 50 mM Tris pH 7.5 and 10 mM CaCl2, with or without the peptides (2 nmol) of Table 1, so as to observe the cross-linking of I-κBα. The peptides of Table 1 were synthesized in Peptron Inc. After incubation for 10 min at 37° C., the reactants were separated by SDS-PAGE and visualized by Coomassie staining. Bands were measured for intensity using Adobe Photoshop software (FIGS. 7 and 8)."}
{"molecule": "ENLQMLP [I-κBα-derived synthetic peptide, residues 275-281]", "inhibition of transglutaminase-mediated I-κBα polymerization": "inhibit transglutaminase-mediated I-κBα polymerization"}
{"molecule": "GVLTQSCTT [I-κBα-derived synthetic peptide, residues 161-169]", "inhibition of transglutaminase-mediated I-κBα polymerization": "inhibit transglutaminase-mediated I-κBα polymerization"}
{"molecule": "HSILKATNY [I-κBα-derived synthetic peptide, residues 173-181]", "inhibition of transglutaminase-mediated I-κBα polymerization": "inhibit transglutaminase-mediated I-κBα polymerization"}
{"molecule": "IHEEKALTM [I-κBα-derived synthetic peptide, residues 83-91]", "inhibition of transglutaminase-mediated I-κBα polymerization": "inhibit transglutaminase-mediated I-κBα polymerization"}
{"molecule": "ILKAT [I-κBα-derived synthetic peptide, residues 175-179]", "inhibition of transglutaminase-mediated I-κBα polymerization": "inhibit transglutaminase-mediated I-κBα polymerization"}
{"molecule": "LGQLT [I-κBα-derived synthetic peptide, residues 269-273]", "inhibition of transglutaminase-mediated I-κBα polymerization": "inhibit transglutaminase-mediated I-κBα polymerization"}
{"molecule": "RDGLKKERLL [I-κBα-derived synthetic peptide, residues 17-26]", "inhibition of transglutaminase-mediated I-κBα polymerization": "inhibit transglutaminase-mediated I-κBα polymerization"}
{"molecule": "RIEEQLG [mutant of I-κBα-derived peptide]", "inhibition of transglutaminase-mediated I-κBα polymerization": "inhibit transglutaminase-mediated I-κBα polymerization"}
{"molecule": "RIEQELG [mutant of I-κBα-derived peptide]", "inhibition of transglutaminase-mediated I-κBα polymerization": "inhibit transglutaminase-mediated I-κBα polymerization"}
{"molecule": "RIQEELG [mutant of I-κBα-derived peptide]", "inhibition of transglutaminase-mediated I-κBα polymerization": "inhibit transglutaminase-mediated I-κBα polymerization"}
{"molecule": "RIQQQLG [I-κBα-derived synthetic peptide, residues 264-270]", "inhibition of transglutaminase-mediated I-κBα polymerization": "inhibit transglutaminase-mediated I-κBα polymerization"}
{"molecule": "TRIQQQLGQLTL [I-κBα-derived synthetic peptide, residues 263-274]", "inhibition of transglutaminase-mediated I-κBα polymerization": "inhibit transglutaminase-mediated I-κBα polymerization"}
{"molecule": "VFGGQRLTL [I-κBα-derived synthetic peptide, residues 309-317]", "inhibition of transglutaminase-mediated I-κBα polymerization": "inhibit transglutaminase-mediated I-κBα polymerization"}
{"target": "transglutaminase (guinea pig liver, Sigma) (Cavia cutleri, UniProt P08587)", "experiment": "not given", "conditions": "purified I-κBα with 1 mU transglutaminase, 50 mM Tris-HCl pH 7.5, 10 mM CaCl2, NuPAGE gel; in the presence of EDTA"}
{"molecule": "O=C(O)CN(CCN(CC(=O)O)CC(=O)O)CC(=O)O", "note": "[EDTA]", "inhibition of transglutaminase (I-κBα polymerization)": "inhibited"}
